Results published in publication PMC3141330 (Biochemistry, 2010).
Ends that are not written are not given here.

B1: GST-CHIP fusion (pGST-hCHIP (1-303)) (enzyme, human, UniProt Q9UNE7 1-303, looked up)
chain: MKGKEEKEGGARLGAGGGSPEKSPSAQELKEQGNRLFVGRKYPEAAACYGRAITRNPLVAVYYTNRALCYLKMQQHEQALADCRRALELDGQSVKAHFFLGQCQLEMESYDEAIANLQRAYSLAKEQRLNFGDDIPSALRIAKKKRWNSIEERRIHQESELHSYLSRLIAAERERELEECQRNHEGDEDDSHVRAQQACIEAKHDKYMADMDELFSQVDEKRKKRDIPDYLCGKISFELMREPCITPSGITYDRKDIEEHLQRVGHFDPVTRSPLTQEQLIPNLAMKEVIDAFISENGWVEDY
B2: Carboxyl terminus of Hsc70-interacting protein (CHIP), full-length human, His6-tagged (enzyme, UniProt Q9UNE7 1-303, looked up)
chain: B1 chain
B3: His6-Hsp90β (full-length) (natural protein)
chain: not shown

How the values were obtained:
[1] = target: B3; test: pull-down
[2] = target: His6-Hsp70 (full-length, wild type) (UniProt P0DMV8 1-641); test: ITC
[3] = target: B2; test: SEC
[4] = target: B2; test: ITC

His6-Hsp70 (full-length, wild type), sequence (P0DMV8 whole entry): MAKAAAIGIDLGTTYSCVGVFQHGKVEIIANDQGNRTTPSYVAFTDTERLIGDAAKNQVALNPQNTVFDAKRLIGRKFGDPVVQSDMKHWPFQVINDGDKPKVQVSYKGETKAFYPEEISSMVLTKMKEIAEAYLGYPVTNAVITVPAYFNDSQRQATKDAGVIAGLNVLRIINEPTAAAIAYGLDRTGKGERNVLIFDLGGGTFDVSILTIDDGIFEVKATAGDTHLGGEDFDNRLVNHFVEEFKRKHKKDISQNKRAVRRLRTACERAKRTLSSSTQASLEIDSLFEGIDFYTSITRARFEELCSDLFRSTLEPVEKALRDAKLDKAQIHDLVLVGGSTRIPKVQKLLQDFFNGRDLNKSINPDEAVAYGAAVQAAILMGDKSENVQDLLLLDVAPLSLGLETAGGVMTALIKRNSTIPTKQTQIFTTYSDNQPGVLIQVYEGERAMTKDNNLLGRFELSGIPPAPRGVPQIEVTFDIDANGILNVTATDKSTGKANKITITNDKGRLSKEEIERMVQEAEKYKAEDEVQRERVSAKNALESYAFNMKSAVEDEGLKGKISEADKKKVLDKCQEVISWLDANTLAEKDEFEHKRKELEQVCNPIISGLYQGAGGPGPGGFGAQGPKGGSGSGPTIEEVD

B1
binding result [1]: binds

B2
Kd [2]: ~1 µM

B3
stoichiometry N [3]: ~2.1 Hsp90 monomers per CHIP monomer

GGGAPPSGGASSGPTIEEVD-OH [Hsp70 C-terminal peptide (GGGAPPSGGASSGPTIEEVD-COO-), ITC]
stoichiometry N [4]: ~0.8 C-terminal Hsp70 peptide per CHIP monomer

GSSAAWTEEMPPLEGDDDTSRMEEVD-OH [Hsp90 C-terminal peptide ([residues removed]-COO-), ITC]
stoichiometry N [4]: ~0.9 Hsp90 C-terminal peptide per CHIP monomer
